Measured values from patent US12391751B2, “Antibody against advanced glycation end products and use thereof” (Bloom Technology Corporation, priority 2018, dated 2025).

Assays:
Fru-AGEs-BSA = Fru-AGEs-BSA (Bos taurus, UniProt P02769); test: Specificity of SJ-5 by competitive ELISA (Example 7); format: binding; details: GAL13-BSA or Glycer-AGEs-BSA immobilized, POD-labeled SJ-5 0.4 μg/mL
[1] = tested on: retinal pigment epithelial cells (ARPE-19 cells); test: Tight junction breakdown suppression test, impedance by xCELLigence (Example 34); format: cell-based
Experimental: FBS (FUJIFILM Wako Pure Chemical Corp.) was added at 10% to D-MEM (FUJIFILM Wako Pure Chemical Corp.), and penicillin-streptomycin (Nacalai Tesque, Inc.) was added at 1% thereto to prepare DMEM medium. ARPE-19 cells (ATCC) were cultured in the DMEM medium using a 10 cm dish (Corning Inc.).
xCELLigence RTCA DP system (ACEA Biosciences, Inc.) was installed in a CO2 incubator and used in a state loaded overnight or longer after the installation for stabilization. Immediately before cell preparation, DMEM medium was added at 50 μL/well to E-plate (ACEA Biosciences, Inc.), and a background was measured.
The medium was removed from the ARPE-19 cells cultured in (1) described above, which were then washed by repeating the addition and removal of 10 mL of PBS(−) (FUJIFILM Wako Pure Chemical Corp.) twice. 1 mL of trypsin-EDTA (FUJIFILM Wako Pure Chemical Corp.) was added thereto, and the cells were dispersed by incubation in a CO2 incubator (Taitec Corp.) at 37° C. for 3 minutes. Then, the activity of trypsin was neutralized by the addition of 10 mL of DMEM medium. The neutralized cell dispersion was transferred to a 50 mL tube (Falcon) and centrifuged at 1500 rpm for 5 minutes using a centrifuge (Kubota Corp.). Then, the supernatant was discarded, and the precipitates were resuspended in 1 mL of DMEM medium. A 10 μL aliquot of the resuspended cell dispersion was mixed with 10 μL of Trypan Blue (NanoEnTek Inc.), and 10 μL thereof was added to a counting chamber (NanoEnTek Inc.). Then, the number of live cells was counted in Auto Cell Counter EVE (NanoEnTek Inc.). The cell suspension was diluted into 4.0×10^5 cells/mL with DMEM medium and inoculated at 80 μL/well to E-plate (ACEA Biosciences, Inc.).
The impedance of the plate was measured every 15 minutes using the xCELLigence RTCA DP system to confirm the adhesion of the cells to the plate. […] After the addition, the impedance was also measured every 15 minutes.
The impedance was measured 10 to 12 hours after the addition of A-peak-BSA and normalized to that of the A-peak-BSA addition group defined as 0.

A-peak-BSA = A-peak-BSA (Bos taurus, UniProt P02769); test: Suppression test of DAB oxidation of A-peak-BSA (Example 32); format: biochemical; details: PB-1 1.8 mg/mL; A-peak-BSA 2 mg/mL; white LED 3000 lux overnight
Experimental: Diaminobenzidine (DAB, Dojindo Laboratories) was prepared into 5 mg/mL in a PBS solution. A-peak-BSA (2 mg/mL, PBS solution) was prepared in the same way as in Example 24. 10 μL of the DAB solution was added to a 0.6 mL microtube (Watson), and 100 μL of PBS, the PB-1 antibody (1.8 mg/mL), or a mouse IgG isotype control (Ctrl-mIgG, Thermo Fisher Scientific Inc.) was further added thereto. After stirring with a vortex mixer, 10 μL of the A-peak-BSA solution was added thereto. These solutions were stirred with a vortex mixer and then irradiated overnight with white LED (3000 lux). The solutions thus irradiated with light were stirred with a vortex mixer, then spun down, and recovered at 100 μL/well into Violamo 96-well plate (AS ONE Corp.).
Absorbance at a wavelength of 460 nm was measured with a microplate reader (Cytation 5, BioTek Instrument Inc.) to detect oxidized DAB. The ordinate of the graph depicts a relative value to oxidized DAB detected in the antibody-untreated group (PBS addition group).

Sequence of Fru-AGEs-BSA (P02769 25-607): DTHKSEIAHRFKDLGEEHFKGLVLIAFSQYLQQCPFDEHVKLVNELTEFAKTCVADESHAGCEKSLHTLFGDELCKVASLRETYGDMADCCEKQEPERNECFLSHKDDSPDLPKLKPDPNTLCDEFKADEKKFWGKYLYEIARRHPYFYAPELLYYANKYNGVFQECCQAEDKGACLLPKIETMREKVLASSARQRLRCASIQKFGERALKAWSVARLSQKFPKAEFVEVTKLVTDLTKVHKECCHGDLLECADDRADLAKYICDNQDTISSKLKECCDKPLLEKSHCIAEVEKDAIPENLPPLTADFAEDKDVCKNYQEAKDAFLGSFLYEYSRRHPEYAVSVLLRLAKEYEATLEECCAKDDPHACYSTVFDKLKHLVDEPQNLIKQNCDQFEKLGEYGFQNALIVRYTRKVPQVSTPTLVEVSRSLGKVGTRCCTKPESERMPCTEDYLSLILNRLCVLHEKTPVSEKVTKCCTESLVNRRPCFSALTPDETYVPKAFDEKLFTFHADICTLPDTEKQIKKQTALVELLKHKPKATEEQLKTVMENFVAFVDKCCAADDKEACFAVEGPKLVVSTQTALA
Sequence of A-peak-BSA (P02769 25-607): as above

Molecule	specificity: reactivity with Fru-AGEs-BSA (Fru-AGEs-BSA)	suppression of A-peak-BSA-induced reduction in impedance ([1]; SJ-5 final concentration of 1 mg/mL)	oxidized DAB (absorbance at 460 nm) compared with PBS or Ctrl-mIgG treatment group (A-peak-BSA)	suppression of A-peak-BSA-induced reduction in impedance ([1]; 9 μL of PB-1 at 10, 3, 1 or 0.3 mg/mL)	suppression of reduction in impedance compared with SJ-5 antibody ([1]; PB-1 even in a lower concentration region)
SJ-5: mouse monoclonal antibody raised against GAL13-MSA; heavy-chain variable region SEQ ID NO 4, light-chain variable region SEQ ID NO 8 (antibody, listed as Mus musculus, V domains shown) VH: EVMLVESGGRLVKPGGSLKLSCAASGFTFSSYGMSWVRQTPEKRLEWVATISGGGSYTYYPDSVKGRFTISRDNVKNNLYLQMSSLRSEDTALYYCARRGAYGDYGWFAYWGQGTLVTVSA VL: DIVLTQSPATLSVTPGDSVSLSCRASQSINNNLHWYQQKSHESPRLLIKCASQSISGIPSRFSGSGSGTDFTLSINSVETEDFGMYFCQQSNSWPLTFGAGTKLELK	negative	suppression of the reduction was found			
PB-1: mouse monoclonal antibody raised against A-peak-BSA; heavy-chain variable region SEQ ID NO 18, light-chain variable region SEQ ID NO 22 (antibody, listed as Mus musculus, V domains shown) VH: EVRLQQSGPELVKPGTSVKISCKASGYSFTGYYMHWVKQSPVKSLEWIGRIIPYNGATSYNQNFKDKASLTVDKSSRTAYMDLHSLTSEDSAVYYCARSRYYGRAPYYFDYWGQGTTLTVSS VL: DVVVTQTPLSLPVSLGDQASISCRSSQSIVHSNGNTYLEWYLQKPGQSPKLLIYKVSNRFSGVPDRISGSGSGTDFTLKISRVEAGDLGVYSCFQGSHVPFTFGSGTKLEIK			largely decreased	significantly suppressed	stronger suppression than that by the SJ-5 antibody
